1 substance from patent US20150087584A1 can be followed below.

This assay addresses Helicoverpa armigera gut proteases (HGP) (Helicoverpa armigera). Nature of the assay: cell-based or functional assay.

inhibitory repeat domain IRD-7 of Capsicum annuum Pin-II proteinase inhibitors (CanPIs), sequence (O49146 other isoform, or with tags, fused parts or gaps): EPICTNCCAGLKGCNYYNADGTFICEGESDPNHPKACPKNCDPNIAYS

In turn, “inhibitory repeat domain IRD-7 of Capsicum annuum Pin-II proteinase inhibitors (CanPIs) (from UniProt O49146 152-198)” displayed an HGPI activity of the IRD alone at its IC50 concentration of 49%; an inhibition of HGP activity (BApNA and Azocasein substrates) of 40 to 45%.
